According to US20090018083A1:

Key:
[1] = biological target: T1, BCL6-3C BTB domain (human BCL6 residues 5-129 with C8Q/C67R/C84N) (human), P41182; assay: ITC in solution, 25° C; ITC in solution, not SPR; details: remark: other sources report otherwise
[2] = biological target: T1, BCL6-3C BTB domain (human BCL6 residues …); assay: ITC in solution, 25° C; details: remark: other sources report otherwise

LVATVKEAGRSIHEIPR [SMRT^1414-1430 peptide (SMRT-BBD), no additional N-terminal residues] showed a Kd [1] of 11.4 µM, a -TΔS [2] of 16.4 and a stoichiometry (SMRT peptides per BCL6 chain) (SMRT peptides per BCL6 chain) [2] of 1.11. The ΔH [2] was -23.2 kcal/mol.
